Measurements from patent publication US20200369765A1 (INNATE PHARMA, published 2020).
Where a chain is given by its changes, count along the chain named.

What was measured:
Siglec-9 Fc protein = molecular target: T1, Siglec-9 Fc protein (human); assay: ELISA, blocking: Siglec-9 Fc captured on protein A, mAb dilution series, then biotinylated polymer Sia1 (Neu5Aca2-3Galb1-4GlcNAcb-PAA-biotin), streptavidin-peroxidase (top panel)
T1 construct: Produced in CHO cells; also called human Siglec-9 Fc
Experimental: Blocking of the interaction between Siglec-7 and -9 and sialylated ligands by anti Siglec-7/9 antibodies was tested on ELISA assays. Siglec proteins were Siglec-7 human Fc and Siglec-9 Human Fc recombinant proteins, and ligands were biotinylated polymers with sialylated trisaccharides (Neu5Aca2-3Galb1-4GcNAcb-PAA-biotin Glycotech #01-077 referred to as “Sia1” and 6′-Sialyllactose-PAA-biotin Glycotech #01-039 (referred to as “Sia2”). Briefly, Protein A was coated on ELISA plates over night at 4° C. After 3 washes and saturation, Siglec-7 Fc and Siglec-9 Fc were added at 0.8 μg/well at RT for 1H30. After 3 washes, mAbs were added at 20 ug/ml and a series of dilution of 1:5. After 3 washes, biotinylated sialylated polymers were added for 3 hours at room temperature. After 3 washes, Streptavidin-Peroxidase (Beckman) was added at 1:1000. […] The absorbance was read at 450 nm.

[1] = molecular target: T2, Human Siglec-9 Ig-like C2-type domain 1 (human); assay: flow cytometry, HEK293T cells expressing single Siglec-9 domains
T2 construct: expressed on HEK293T cells
T2 chain: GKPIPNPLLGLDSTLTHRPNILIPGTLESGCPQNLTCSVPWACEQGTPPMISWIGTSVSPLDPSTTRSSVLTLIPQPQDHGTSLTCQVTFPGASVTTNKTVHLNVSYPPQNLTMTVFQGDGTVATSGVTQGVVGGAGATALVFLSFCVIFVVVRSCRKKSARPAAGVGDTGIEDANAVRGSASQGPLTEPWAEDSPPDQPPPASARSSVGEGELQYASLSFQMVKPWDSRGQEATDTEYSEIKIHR

Human Siglec-9 [2] = molecular target: T3, Human Siglec-9 (human, UniProt Q9Y336 18-463); assay: flow cytometry titration on neuraminidase-treated moDCs, goat F(ab')2 anti-human IgG (Fc) PE; table under the right panel
T3 construct: On transfected CHO cells; also on YTS and KHYG-1 transfectants, primary NK cells and moDC; also called huSiglec-9; CD329
Experimental: (§1) moDC were desialylated for 2 hours with 25 mU neuraminidase (Roche Diagnostics).
(§2) Binding on moDCs and neuraminidase treated moDCs was tested in a titration experiment by flow cytometry. Cells were incubated 1h in Staining Buffer (SB) with primary antibodies at 10 ug/ml and a series of dilution of 1:10. They were washed two times with SB, then incubated 30 min with a Goat F(ab′)² Anti-Human IgG (Fc) PE (Jackson ImmunoResearch), and washed twice with SB.

Human Siglec-9 mutant M5 = molecular target: T4, Human Siglec-9 mutant M5 (human, UniProt Q9Y336 18-463); assay: flow cytometry, HEK293T transfectants
T4 construct: Expressed on HEK293T cells; also called Mutant 5

Human Siglec-9 mutant M6 = molecular target: T5, Human Siglec-9 mutant M6 (human, UniProt Q9Y336 18-463); assay: flow cytometry, HEK293T transfectants
T5 construct: Expressed on HEK293T cells; also called Mutant 6

[3] = molecular target: T6, Human Siglec-9 mutant M10 (human, UniProt Q9Y336 18-463); assay: flow cytometry, HEK293T transfectants
T6 construct: Expressed on HEK293T cells; also called Mutant 10

[4] = molecular target: T7, Human Siglec-9 mutant M11 (human, UniProt Q9Y336 18-463); assay: flow cytometry, HEK293T transfectants
T7 construct: Expressed on HEK293T cells; also called Mutant 11

[5] = molecular target: T8, Human Siglec-9 mutant M14 (human, UniProt Q9Y336 18-463); assay: flow cytometry, HEK293T transfectants
T8 construct: Expressed on HEK293T cells; also called Mutant 14

[6] = molecular target: T9, Human Siglec-9 mutant M15 (human, UniProt Q9Y336 18-463); assay: flow cytometry, HEK293T transfectants
T9 construct: Expressed on HEK293T cells; also called Mutant 15

Human Siglec-9 mutant M7 = molecular target: T10, Human Siglec-9 mutant M7 (human, UniProt Q9Y336 18-463); assay: flow cytometry, HEK293T transfectants
T10 construct: Expressed on HEK293T cells; also called Mutant 7

Human Siglec-9 mutant M3 = molecular target: T11, Human Siglec-9 mutant M3 (human, UniProt Q9Y336 18-463); assay: flow cytometry, HEK293T transfectants
T11 construct: Expressed on HEK293T cells; also called Mutant 3

Human Siglec-9 mutant M9 = molecular target: T12, Human Siglec-9 mutant M9 (human, UniProt Q9Y336 18-463); assay: flow cytometry, HEK293T transfectants
T12 construct: Expressed on HEK293T cells; also called Mutant 9

Human Siglec-7 = molecular target: T13, Human Siglec-7 (human, UniProt Q9Y286 19-467); assay: flow cytometry, CHO transfectants
T13 construct: Expressed on transfected CHO cells; also called huSiglec-7; CD328

Human Siglec-9 [7] = molecular target: T3, Human Siglec-9; assay: flow cytometry titration on moDC vs neuraminidase-treated moDC
Experimental: as §1, §2

Human Siglec-9 [8] = molecular target: T3, Human Siglec-9; assay: flow cytometry on fresh purified human NK cells, mean of 4 donors
Experimental: Binding of antibodies on fresh purified human NK cells was tested by titration experiment by flow cytometry. Cells were incubated 1h in Staining Buffer (SB) with primary antibodies at 10 ug/ml and a series of dilution of 1:10. They were washed three times with SB, then incubated 30 min with a Goat F(ab′)² Anti-Human IgG (Fc) PE (Jackson ImmunoResearch). Stainings were acquired on a BD FACS Canto II and analyzed using the FlowJo software. EC₅₀ values are shown in the table below in μg/ml (calculated using a 4-parameter logistic fit).

T3 sequence (Q9Y336 18-463): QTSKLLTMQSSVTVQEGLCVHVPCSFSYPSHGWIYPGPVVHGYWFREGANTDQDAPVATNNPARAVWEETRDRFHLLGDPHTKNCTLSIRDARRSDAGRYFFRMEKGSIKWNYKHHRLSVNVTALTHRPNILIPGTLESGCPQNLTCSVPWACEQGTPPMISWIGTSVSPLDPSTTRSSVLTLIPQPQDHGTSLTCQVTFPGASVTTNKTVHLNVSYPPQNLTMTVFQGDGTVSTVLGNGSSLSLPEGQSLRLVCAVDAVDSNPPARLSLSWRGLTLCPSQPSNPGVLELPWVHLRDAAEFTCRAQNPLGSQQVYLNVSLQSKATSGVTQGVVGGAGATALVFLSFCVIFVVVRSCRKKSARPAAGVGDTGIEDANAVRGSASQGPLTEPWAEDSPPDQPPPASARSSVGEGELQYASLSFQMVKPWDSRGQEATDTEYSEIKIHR
T1 sequence (chain, as listed by the source limits assumed): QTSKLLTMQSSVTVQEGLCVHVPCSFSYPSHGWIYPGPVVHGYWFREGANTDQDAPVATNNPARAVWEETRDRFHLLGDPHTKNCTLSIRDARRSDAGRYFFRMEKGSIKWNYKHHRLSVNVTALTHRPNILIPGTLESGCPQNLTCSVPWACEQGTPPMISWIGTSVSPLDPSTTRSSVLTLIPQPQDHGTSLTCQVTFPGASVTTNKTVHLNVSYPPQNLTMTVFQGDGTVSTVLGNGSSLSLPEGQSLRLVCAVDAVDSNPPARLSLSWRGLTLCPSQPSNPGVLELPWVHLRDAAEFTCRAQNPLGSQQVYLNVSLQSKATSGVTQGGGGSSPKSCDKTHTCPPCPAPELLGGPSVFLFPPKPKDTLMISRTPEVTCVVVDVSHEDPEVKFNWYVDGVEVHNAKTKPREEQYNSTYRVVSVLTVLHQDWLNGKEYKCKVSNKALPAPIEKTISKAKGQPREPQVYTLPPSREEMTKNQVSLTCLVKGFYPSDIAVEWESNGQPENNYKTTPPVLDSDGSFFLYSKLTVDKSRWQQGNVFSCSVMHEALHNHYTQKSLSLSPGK
T11 sequence (Q9Y336 other isoform, or with tags, fused parts or gaps mutant): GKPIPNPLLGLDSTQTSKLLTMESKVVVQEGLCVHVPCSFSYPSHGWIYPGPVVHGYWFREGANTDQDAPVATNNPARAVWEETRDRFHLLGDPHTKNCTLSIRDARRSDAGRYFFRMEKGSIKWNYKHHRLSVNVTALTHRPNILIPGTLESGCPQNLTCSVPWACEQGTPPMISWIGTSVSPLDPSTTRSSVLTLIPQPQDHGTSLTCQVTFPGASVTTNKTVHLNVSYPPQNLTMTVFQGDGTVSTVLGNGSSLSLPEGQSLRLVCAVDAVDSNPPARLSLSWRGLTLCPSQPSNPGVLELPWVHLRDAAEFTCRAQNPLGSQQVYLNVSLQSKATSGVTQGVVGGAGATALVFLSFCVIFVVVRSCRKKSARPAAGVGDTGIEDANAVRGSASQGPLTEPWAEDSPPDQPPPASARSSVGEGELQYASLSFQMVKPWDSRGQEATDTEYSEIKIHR
T4 sequence (Q9Y336 other isoform, or with tags, fused parts or gaps mutant): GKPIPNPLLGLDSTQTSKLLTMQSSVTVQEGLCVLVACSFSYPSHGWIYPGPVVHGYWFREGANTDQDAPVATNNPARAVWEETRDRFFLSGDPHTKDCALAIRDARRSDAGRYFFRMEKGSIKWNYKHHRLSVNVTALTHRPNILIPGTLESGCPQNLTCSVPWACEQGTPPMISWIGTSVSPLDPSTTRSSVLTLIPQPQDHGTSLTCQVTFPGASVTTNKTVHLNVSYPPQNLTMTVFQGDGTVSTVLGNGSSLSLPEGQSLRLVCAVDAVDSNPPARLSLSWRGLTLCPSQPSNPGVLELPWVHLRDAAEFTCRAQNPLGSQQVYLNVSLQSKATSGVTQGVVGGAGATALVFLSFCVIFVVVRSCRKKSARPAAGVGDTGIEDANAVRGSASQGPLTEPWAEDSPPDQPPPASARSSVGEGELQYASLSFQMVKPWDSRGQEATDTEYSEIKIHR
T13 sequence (Q9Y286 19-467): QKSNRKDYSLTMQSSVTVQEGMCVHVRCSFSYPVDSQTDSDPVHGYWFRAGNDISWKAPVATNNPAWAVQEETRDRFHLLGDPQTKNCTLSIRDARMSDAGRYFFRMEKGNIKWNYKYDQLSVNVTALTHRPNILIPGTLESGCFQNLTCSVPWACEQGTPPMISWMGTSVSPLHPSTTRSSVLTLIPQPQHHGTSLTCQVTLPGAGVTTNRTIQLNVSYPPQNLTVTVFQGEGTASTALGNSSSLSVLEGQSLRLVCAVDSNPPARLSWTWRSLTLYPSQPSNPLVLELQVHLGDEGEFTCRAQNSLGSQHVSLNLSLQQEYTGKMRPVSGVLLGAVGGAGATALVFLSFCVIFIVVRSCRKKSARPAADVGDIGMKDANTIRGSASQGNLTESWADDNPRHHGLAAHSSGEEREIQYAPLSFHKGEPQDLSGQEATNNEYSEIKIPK
T5 sequence (Q9Y336 other isoform, or with tags, fused parts or gaps mutant): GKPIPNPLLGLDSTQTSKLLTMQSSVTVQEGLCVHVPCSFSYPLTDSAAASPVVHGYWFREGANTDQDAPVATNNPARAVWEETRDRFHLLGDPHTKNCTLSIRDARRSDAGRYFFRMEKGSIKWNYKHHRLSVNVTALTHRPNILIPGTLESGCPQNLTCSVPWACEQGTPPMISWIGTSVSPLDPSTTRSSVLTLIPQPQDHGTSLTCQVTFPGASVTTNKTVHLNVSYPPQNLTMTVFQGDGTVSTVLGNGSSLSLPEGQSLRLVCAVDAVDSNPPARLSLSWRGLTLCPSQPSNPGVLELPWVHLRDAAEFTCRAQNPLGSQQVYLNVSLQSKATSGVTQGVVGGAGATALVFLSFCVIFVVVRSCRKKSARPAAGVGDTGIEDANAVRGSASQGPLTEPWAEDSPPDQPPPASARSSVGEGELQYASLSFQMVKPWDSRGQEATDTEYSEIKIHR
T12 sequence (Q9Y336 other isoform, or with tags, fused parts or gaps mutant): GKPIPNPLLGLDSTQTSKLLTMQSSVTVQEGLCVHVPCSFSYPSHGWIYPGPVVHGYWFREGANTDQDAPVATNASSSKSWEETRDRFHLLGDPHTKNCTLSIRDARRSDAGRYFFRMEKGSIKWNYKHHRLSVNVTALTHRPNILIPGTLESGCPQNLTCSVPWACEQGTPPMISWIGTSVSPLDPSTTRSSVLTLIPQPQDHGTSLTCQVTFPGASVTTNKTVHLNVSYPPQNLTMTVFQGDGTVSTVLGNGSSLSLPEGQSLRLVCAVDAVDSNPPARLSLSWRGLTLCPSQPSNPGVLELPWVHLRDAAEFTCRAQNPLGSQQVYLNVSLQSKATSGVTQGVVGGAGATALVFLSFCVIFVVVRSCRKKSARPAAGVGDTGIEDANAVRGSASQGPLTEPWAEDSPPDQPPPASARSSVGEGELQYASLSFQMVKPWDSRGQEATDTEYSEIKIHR
T8 sequence (Q9Y336 other isoform, or with tags, fused parts or gaps mutant): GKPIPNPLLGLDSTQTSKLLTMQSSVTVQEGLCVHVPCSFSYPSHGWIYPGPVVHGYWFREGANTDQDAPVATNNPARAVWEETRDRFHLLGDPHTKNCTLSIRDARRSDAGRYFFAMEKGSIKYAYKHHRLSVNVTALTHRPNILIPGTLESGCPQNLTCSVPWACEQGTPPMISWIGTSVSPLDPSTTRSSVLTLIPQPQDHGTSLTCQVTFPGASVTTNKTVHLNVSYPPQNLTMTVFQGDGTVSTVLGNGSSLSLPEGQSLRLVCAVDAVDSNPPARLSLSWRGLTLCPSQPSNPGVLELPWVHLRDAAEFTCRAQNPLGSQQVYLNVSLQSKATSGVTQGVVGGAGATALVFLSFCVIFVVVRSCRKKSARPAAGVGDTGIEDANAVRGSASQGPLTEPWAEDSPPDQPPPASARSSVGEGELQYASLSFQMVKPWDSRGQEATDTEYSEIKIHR
T7 sequence (Q9Y336 other isoform, or with tags, fused parts or gaps mutant): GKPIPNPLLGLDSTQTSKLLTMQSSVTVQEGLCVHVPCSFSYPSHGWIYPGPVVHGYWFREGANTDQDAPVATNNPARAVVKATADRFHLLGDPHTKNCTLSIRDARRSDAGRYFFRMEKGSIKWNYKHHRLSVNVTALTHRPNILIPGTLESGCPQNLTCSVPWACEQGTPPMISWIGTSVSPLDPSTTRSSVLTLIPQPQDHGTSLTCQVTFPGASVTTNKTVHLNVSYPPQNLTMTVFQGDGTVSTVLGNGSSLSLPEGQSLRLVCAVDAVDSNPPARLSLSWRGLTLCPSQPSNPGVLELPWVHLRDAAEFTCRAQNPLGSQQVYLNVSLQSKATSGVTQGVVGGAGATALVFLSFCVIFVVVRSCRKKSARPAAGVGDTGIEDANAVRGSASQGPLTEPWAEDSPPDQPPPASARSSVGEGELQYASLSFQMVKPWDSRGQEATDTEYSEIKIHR
T10 sequence (Q9Y336 other isoform, or with tags, fused parts or gaps mutant): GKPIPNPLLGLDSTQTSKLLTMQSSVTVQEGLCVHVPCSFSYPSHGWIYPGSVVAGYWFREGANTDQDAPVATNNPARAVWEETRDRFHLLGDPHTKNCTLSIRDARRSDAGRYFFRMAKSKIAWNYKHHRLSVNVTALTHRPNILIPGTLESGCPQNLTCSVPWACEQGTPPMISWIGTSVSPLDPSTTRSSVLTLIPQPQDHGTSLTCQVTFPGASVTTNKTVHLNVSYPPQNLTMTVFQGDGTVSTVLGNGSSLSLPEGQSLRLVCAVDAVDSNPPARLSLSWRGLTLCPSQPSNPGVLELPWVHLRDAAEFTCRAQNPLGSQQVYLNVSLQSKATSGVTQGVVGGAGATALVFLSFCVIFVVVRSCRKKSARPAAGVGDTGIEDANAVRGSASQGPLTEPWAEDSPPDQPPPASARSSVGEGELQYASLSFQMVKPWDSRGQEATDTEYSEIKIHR

B1: mAb4 (antibody, human IgG1, V domains shown)
VH: DVQLVESGGDLVKPGGSLKLSCAASGFAFSSYDMSWVRQSPEKRLEWIAHIGSGGGNIYYPDTVKGRFTISRDNAKNTLYLQMRSLKSEDTAMYYCARLIFTTGFYGMDYWGQGTSVTVSS
VL: DIQMTQTTSSLSASLGDRVTISCRASQDISSYLNWYQQKPDGTIKLLIYYTSRLHSGVPSRFSGSGSGTDYSLTISNLDQDDIATYFCQQGNALPWTFGGGTKLEIK
- binding result (Siglec-9 Fc protein): binds
- binding result [1]: binds

B2: mAb5 (antibody, human IgG1, V domains shown)
VH: EIQLQQSGPELEKPGASVKISCKASGYSFSDYNMNWVKQSNGKSLEWIGNIDPYYGATSYNQRFKGKATLTVDKSSSTAYMQLKSLTSEDSAVYYCARGDSLFAYWGHGTLVTVSA
VL: DIVMTQSQEFMSTSLGDRVSVTCKASQNVGTNVAWYQQKPGQSPKALLYSASSRYSGVPDRFTGSGSGTDFTLTISNVQSEDLAEYFCQQYITYPYTFGGGTKLEIK
- binding result (Siglec-9 Fc protein): binds
- binding result [1]: binds

B3: mAb6 (antibody, human IgG1, V domains shown)
VH: B2 VH with H108Q
VL: B2 VL with S76N, V78M
- binding result (Siglec-9 Fc protein): binds
- binding result [1]: binds

B4: mAbC (antibody, human IgG1, V domains shown)
VH: QIQLVQSGPELKKPGETVKISCKASGYTFTNYEMNWVKEAPGKGLKWMGWINTYTGESTYADDFKGRFAFSLETSASTVYLQINNLKDEDVATYFCVRDDYGRSYGFAYWGQGTLVTVSA
VL: NIVLTQSPASLTVSLGQRANISCRASESVDSYGNSFMHWYQQKPGQPPKLLIYLASKLESGVPARFSGSGSRTDFTLTIDPVETDDAATYYCHQNNEDPPWTFGGGTKLEIK
- EC50 (Human Siglec-9 [2]): 0.0274 µg/mL
- binding result (Human Siglec-9 mutant M5): binds
- binding result (Human Siglec-9 mutant M6): binds
- binding result [3]: binds
- binding result [4]: binds
- binding result [5]: binds
- binding result [6]: binds
- binding result (Human Siglec-9 mutant M7): binds
- binding result (Human Siglec-9 mutant M3): binds
- binding result (Human Siglec-9 mutant M9): binds
- binding result (Human Siglec-7): no binding
- fold change of EC50 after neuraminidase treatment of moDC (Human Siglec-9 [7]): 10 fold
- EC50 (Human Siglec-9 [8]): 0.09 µg/mL
